Data on five molecules can be found in patent US10705101B2, “Determination of the unbound free fatty acid profiles in biological and industrial specimens” (priority 2013, dated 2020).

Assay [1] is described as follows: FFAu profiles in plasma of rats infused with nicotinic acid and different oils. The class given is in vivo. The note with it: rat plasma. On the procedure:
The 5 panels from top to bottom are: A: saline, B: nicotinic acid, C: nicotinic acid+safflower oil, D: nicotinic acid+olive oil, and E: nicotinic acid+coconut oil.
That the FFAu profiles are determined accurately by the method of the present invention is determined by infusing into the blood circulation, of animals and potentially in human subjects, oil/lipid emulsions of known composition, together with heparin. The oils are hydrolyzed by lipoprotein lipases that are released from the capillary endothelial cells by heparin. This lipase activity releases FFAu from the oil that is characteristic of the oil's known composition. Comparing FFAu profiles determined before and after infusion allows determination of the oil composition overlayed on the plasma matrix. Comparing results with different oils and at different levels assesses the validity of the method for determining FFAu profiles in blood samples (for example FIG. 2).
Results are averages of 7 animals for each condition. Nicotinic acid inhibits hormone sensitive lipase (HSL) in adipose tissue resulting in a reduction in circulating FFA levels. Whereas infusion of emulsions of oils of different compositions, together with heparin to activate lipoprotein lipase, will result in the increase of plasma FFA that reflect the composition of the infused oils. When infused together NA and oils results in FFAu profiles that are a conflation of the two effects. […] Adding NA reduces all FFAu except AA which becomes the dominant fraction at nearly 50%. […] NA plus coconut oil results in LAU and MA contributing over 90% of the total FFAu (total FFAu=sum of the concentrations of each of the 9 resolved FFAu). NA plus olive oil results in OA as the dominant FFAu but just barely because NA reduces baseline OA to zero and baseline LA is substantially larger than OA. Thus the FFAu profiles that result from NA plus oil are consistent with the conflation of the two effects. […] Whereas the amount of safflower and coconut oil infused increased the total FFAu to 42 and 92 nM, respectively, consistent with their dominant effects as compared to olive oil (FFAu total=8 nM).

A short description of assay [2]: Probe calibration by titration with FFA / FFA-BSA complexes: PA. As to conditions: equilibrium dissociation constant of probe for PA. It is filed as binding. The procedure: (§1) Calibration: Each probe is calibrated to the extent that the constants in Equation 2 are well determined for all FFAu to be included in profile calculations. Equation 2, which is the form of equation 1 for a single FFAu, relates the FFAu concentration to the equilibrium dissociation constant (Kd), fluorometric constants (Q and Rm) and the measured R values.
(§2) The calibration parameters are determined essentially as described in U.S. Pat. No. 7,601,510 which is incorporated herein by reference and (Huber et al Biochemistry (2006) 45:14263-14274) where the calibrated ADIFAB2 probe was used to generate FFA-BSA complexes with accurate and well buffered FFAu concentrations. To calibrate probes with substantially higher affinities than used in U.S. Pat. No. 7,601,510 and (Huber et al Biochemistry (2006) 45:14263-14274) a boot strap method is used in which a probe having higher affinities is calibrated with ADTFAB2. Such a probe is then used to generate FFA-BSA complexes with FFAu concentrations from 0.1 to 10 nM and these complexes are then used to calibrate other high affinity probes.
(§3) Probe calibration involves titrating the probes with either (i) un-buffered FFA or (ii) BSA-buffered FFA stocks. The un-buffered titrations involve measuring the R-value of a 1 μM probe solution as it is slowly titrated to saturation with small aliquots of a 100 to 250 μM FFA stock (Richieri G V et al. (1992) J Biol Chem 267: 23495-23501, Richieri G V et al. (1999) Mol Cell Biochem 192: 87-94). In this case, the total FFA concentration for each point in the titration is known and a nonlinear fit to the titration data yields the full set of fluorometric constants. In an un-buffered FFA titration, probe concentration is a key variable because the probe binds FFA, directly affecting the FFAu value.
(§4) Alternatively, in a BSA-buffered FFA calibration, the probe solution is titrated with a series of FFA-BSA complexes (600 μM BSA with [FFAu] ranging from 0.1 nM to 4 μM). The titration samples are FFA-BSA complex diluted 50-fold in Measuring Buffer. Probe is added to a concentration of 0.5 μM and the R-value is measured. Because BSA buffers FFAu, its concentration remains constant (i.e. known), even after the addition of probe. […] At least two calibrations with each of the up to 15 different FFA are performed for each probe.
(§5) All of the probes reveal substantial differences for different FFAu and in many cases these differences are related to the aqueous solubility of the FFA. For example, of the FFA in Table 3, SA is the least soluble and MA the most soluble. As discussed in (Richieri G V et al (2000) Biochemistry 39: 7197-7204) the tendency of natural proteins and FABPs, in particular, is for binding constants to be largest (smallest Kd) for the least soluble FFA and conversely for the most soluble FA. In two cases, ADIFAB2 and L11, Kd for SA is substantially the smallest and MA the largest and that pattern is more or less maintained for most of the other probes in Table3 with the exception of L83. In that case MA has the largest affinity while SA's more than 10 fold smaller. To some extent the other calibrations constants follow that behavior; Q is largest for the smallest Kd and Rmax is often largest, so that the probe response tends to be larger for FFA with the larger affinities. The ability to generate mutations that overcome the “natural thermodynamics” allows for probes that have a wide range of specificities and sensitivities than enable the determination of FFAu profiles.

A short description of assay [3]: Probe calibration by titration with FFA / FFA-BSA complexes: SA. The class given is binding. The note with it: equilibrium dissociation constant of probe for SA; read-out: Kd SA. On the procedure:
as §1, §2, §3, §4, §5

A short description of assay [4]: Probe response (increase in R) to 1 nM SA. The class given is binding. As to conditions: 1 nM of SA, FIG. 1. The source says: The set of probes chosen to determine the profile of a sample depends upon the nature of the sample, the types of FFA expected to be present in the sample and the determination that the chosen probes respond to the expected FFA. In addition, especially for the least abundant FFAu in a sample, the probe's sensitivity for a given FFAu must be sufficient to accurately quantitate the low concentration FFAu, for example less than 50 pM. Sensitivity is a function of the Kd, Q, Ro and Rm parameters. Differences in sensitivity among different FFAu probes are apparent in FIG. 1 where for example for ADIFAB2 (acrylodan labeled at lysine 27), 1 nM of SA produces a 20% increase in R while for L11P7B3V26C the increases is almost 500%. […] In the absence of absolutely specific and sensitive probes the determination of FFAu profiles requires an over determined system, which empirically requires about twice the number of probes as FFAu to obtain accurate profiles. The identity of the set of probes to achieve accurate FFAu profiles is not unique. […]
The response profile is the fluorescence change as evaluated as (R−Ro)/Ro (ΔR/Ro) for each FFAu added as a complex of the FFA and albumin so that the FFAu concentration is clamped or buffered at 1 nM for every FFAu for which a calibration has been performed. […]

The nature of assay [5]: Probe calibration by titration with FFA / FFA-BSA complexes: OA. It is filed as binding. The note with it: equilibrium dissociation constant of probe for OA. On the procedure: as §1, §2, §3, §4, §5
Assay [6] is described as follows: Probe calibration by titration with FFA / FFA-BSA complexes: AA. As to conditions: equilibrium dissociation constant of probe for AA. The class given is binding. The procedure:
as §1, §2, §3, §4, §5

A short description of assay [7]: Probe calibration by titration with FFA / FFA-BSA complexes: LA. As to conditions: equilibrium dissociation constant of probe for LA. The class given is binding. On the procedure:
as §1, §2, §3, §4, §5

Assay [8] in a line: Probe calibration by titration with FFA / FFA-BSA complexes: LNA. The class given is binding. As to conditions: equilibrium dissociation constant of probe for LNA. The procedure: as §1, §2, §3, §4, §5
The nature of assay [9]: Probe calibration by titration with FFA / FFA-BSA complexes: POA. The note with it: equilibrium dissociation constant of probe for POA. The class given is binding. The procedure:
as §1, §2, §3, §4, §5

The nature of assay [10]: Probe calibration by titration with FFA / FFA-BSA complexes: MA. As to conditions: equilibrium dissociation constant of probe for MA. The class given is binding. The procedure: as §1, §2, §3, §4, §5
Assay [11] is described as follows: Probe calibration by titration with FFA / FFA-BSA complexes: DHA. The class given is binding. As to conditions: equilibrium dissociation constant of probe for DHA. On the procedure: as §1, §2, §3, §4, §5
Assay [12] is described as follows: Probe response profile / specificity for different FFAu at 1 nM. As to conditions: FFAu giving the largest response to 1 nM of each FFAu; several listed in order of degree of specificity. It is filed as binding. The source says: The abbreviations are: arachidonate (AA), docosahexaenoate (DHA), eicosapentaenoate (EPA), laurate (LAU), linoleate (LA), linolenate (LNA), myristate (MA), oleate (OA), palmitate (PA), palmitoleate (POA), stearate (SA), and vaccenate (VA).
Examples of probes used, generally in groups of 10 or more, to determine FFAu profiles in biological samples such as blood plasma or serum from animals and humans or media from microorganisms are shown in Table 2. In the sequences presented in Table 2 and the sequence listing, amino acids are numbered from the first residue of the mature protein. The initiator methionine residue of the wild-type protein is removed by aminopeptidase activity, leaving an alanine as residue 1. Thus, counting backwards and skipping 0, the initiator methionine is at residue position −1. Specificity indicates the FFAu that gives the largest response to 1 nM of each FFAu when one FFAu dominates the profile and more than one when there is a more even distribution of specificity. Where more than one is indicated they are listed in order of degree of specificity. The abbreviations are: arachidonate (AA), docosahexaenoate (DHA), eicosapentaenoate (EPA), laurate (LAU), linoleate (LA), linolenate (LNA), myristate (MA), oleate (OA), palmitate (PA), palmitoleate (POA), stearate (SA), and vacsinate (VA). The sequences indicate mutations relative to SEQ ID NO: 1. This sequence is a mutated rat intestinal fatty acid binding protein with a Glu 131 to Asp substitution and includes a COOH-terminal affininity tag comprising […], Gly 133 and 6 histidines.
The response profile is the fluorescence change as evaluated as (R−Ro)/Ro (ΔR/Ro) for each FFAu added as a complex of the FFA and albumin so that the FFAu concentration is clamped or buffered at 1 nM for every FFAu for which a calibration has been performed. The calculation is performed simply by rearranging equation 2 to solve for ΔR/Ro. […] However all the probes have different profiles and therefore complementary specificities for different FFAu. Abbreviations are as in Table 2.

Usually Kd stands for a measure of binding affinity in units of concentration.

Substitutions are numbered along the chain they refer to. Names and notes keep the numbering of the source.

As for `O=C(O)c1cccnc1` [NA, nicotinic acid], in assay [1], the “AA fraction of FFAu profile” value is reported as around 50% and the “baseline OA” value is given as “zero”. Moreover, in assay [1] (sum of 9 resolved FFAu, averages of 7 animals), the “total FFAu” value is on record as 2 nM. Besides, the “reduction of total FFAu” value in assay [1] (versus saline, no infused oil) was “more than 4 fold”.

B1: ADIFAB2: acrylodan-labeled (lysine 27) mutant FABP probe: L72A (protein, UniProt P02693 2-132, looked up, variant L72A)
Fatty acid-binding protein, …: AFDGTWKVDRNENYEKFMEKMGINVVKRKLGAHDNLKLTITQEGNKFTVKESSNFRNIDVVFELGVDFAYSAADGTELTGTWTMEGNKLVGKFKRVDNGKELIAVREISGNELIQTYTYEGVEAKRIFKKE
modifications: acrylodan label on K27
notes: acrylodan-labeled (lysine 27) mutant FABP probe: L72A
For B1, the Kd in [2] was 21.4 nM; in [3], 9.3 nM; in assay [5], 32 nM; in [6], 167 nM; in assay [7], 101 nM; in [8], 237 nM. Further, the Kd worked out at 257 nM in assay [9], 324 nM in [10] and 253 nM in assay [11]. Besides, the “increase in R” value in assay [4] came out at 20%.

B2: L2P22 G6: acrylodan-labeled mutant FABP probe: M18I, G31Y, A73G (protein, UniProt P02693 2-132, looked up, variant M18I G31Y A73G)
Fatty acid-binding protein, …: B1 Fatty acid-binding protein, … with M18I, G31Y, A72L, A73G
modifications: acrylodan label
notes: acrylodan-labeled mutant FABP probe: M18I, G31Y, A73G
With B2, the Kd in assay [2] was 5.6 nM; in assay [3], 17.6 nM; in assay [5] it was 33.9 nM; in assay [6], 90.6 nM; in [7] it was 42.2 nM; in assay [8], 89 nM. Besides, the Kd in assay [9] turned out to be 87.9 nM; in assay [10] it was 47.8 nM; in [11], 206 nM.

B3: L1P8 H2: acrylodan-labeled mutant FABP probe: Y14M, L38M, L72W (protein, UniProt P02693 2-132, looked up, variant Y14M L38M L72W)
Fatty acid-binding protein, …: B1 Fatty acid-binding protein, … with Y14M, L38M, A72W
modifications: acrylodan label
notes: acrylodan-labeled mutant FABP probe: Y14M, L38M, L72W
As to B3, the Kd in assay [2] is 45.4 nM; in [3], 19.2 nM; in [5], 14.4 nM; in assay [6], 104 nM; in assay [7], 97.5 nM; in assay [8] it was 217 nM. Besides, the Kd was 209 nM in assay [9], 299 nM in [10] and 248 nM in assay [11]. Further, the Specificity entry in assay [12] was “OA/SA/VA”.

B4: L10P7 A4 L30C: acrylodan-labeled mutant FABP probe: Y14L, M18L, K27A, L30C, G31Y, A73L, Y117A (protein, UniProt P02693 2-132, looked up, variant Y14L M18L K27A L30C G31Y A73L Y117A)
Fatty acid-binding protein, …: B1 Fatty acid-binding protein, … with Y14L, M18L, K27A, L30C, G31Y, A72L, A73L, Y117A
modifications: acrylodan label
notes: acrylodan-labeled mutant FABP probe: Y14L, M18L, K27A, L30C, G31Y, A73L, Y117A
B4: the dissociation constant (Kd) was 3 nM in [2]; 2 nM in assay [3]; 1.3 nM in assay [5]; 1 nM in assay [6]; 1.1 nM in [7]; 2.7 nM in assay [8]. For the same molecule, the Kd in assay [9] came out at 5.5 nM; in assay [10] it was 15.4 nM; in assay [11], 1.2 nM. Further, in assay [12], the Specificity entry is listed as “AA/DHA/OA/EPA/LA”.
